# From article PMC4790635, “A critical role of mevalonate for peptidoglycan synthesis in Staphylococcus aureus” (Scientific Reports, 2016)
# B1: S. aureus MvaA protein (HMG-CoA reductase), His-tag fused recombinant wild-type (enzyme, Staphylococcus aureus (strain RN4220), UniProt Q9FD86 1-425, looked up)
# chain: MQSLDKNFRHLSRQQKLQQLVDKQWLSEDQFDILLNHPLIDEEVANSLIENVIAQGALPVGLLPNIIVDDKAYVVPMMVEEPSVVAAASYGAKLVNQTGGFKTVSSERIMIGQIVFDGVDDTEKLSADIKALEKQIHKIADEAYPSIKARGGGYQRIAIDTFPEQQLLSLKVFVDTKDAMGANMLNTILEAITAFLKNESPQSDILMSILSNHATASVVKVQGEIDVKDLARGERTGEEVAKRMERASVLAQVDIHRAATHNKGVMNGIHAVVLATGNDTRGAEASAHAYASRDGQYRGIATWRYDQKRQRLIGTIEVPMTLAIVGGGTKVLPIAKASLELLNVDSAQELGHVVAAVGLAQNFAACRALVSEGIQQGHMSLQYKSLAIVVGAKGDEIAQVAEALKQEPRANTQVAERILQEIRQQ
# notes: MvaA protein (HMG-CoA reductase) of Staphylococcus aureus RN4220; mvaA gene amplified by PCR from chromosomal DNA with primers FmvaA-His and RmvaA-His and ligated into pET28a in-frame with the N-terminal histidine tag; also called SaMvaA; WT MvaA; source: E. coli BL21(DE3)pLysS, purified (nickel-chelating resin, dialysis)
# Target: the molecule itself
# Experiment: SEC; gel filtration analysis of S. aureus MvaA protein; conditions not told in the text (Supplementary Fig. 9)
protein,measurement,value
B1,stoichiometry N,2
